These results are taken from patent US20190375799A1 (Affibody, published 2019).

Where no end group is shown, it is not given here. The star is where a group is joined. Mal‑DOTA = maleimido-mono-amide-DOTA, O=C(O)CN1CCN(CC(=O)O)CCN(CC(=O)NCCN2C(=O)CC(*)C2=O)CCN(CC(=O)O)CC1; maleimide‑DOTA = maleimide-DOTA

The target in assay [1] is T1, human serum albumin (human, UniProt P02768 25-609).
T1 construct: In the purification steps HSA-Sepharose (GE Healthcare) was used instead of ALBUCULT; also called HSA; ALBUCULT (Novozymes)
Kind of assay: SPR, Biacore 2000, HSA immobilised. For orientation: SPR reads the build-up and loss of mass on a sensor chip optically.

For assay [2], the target named is T2, albumin from rat (rat, UniProt P02770 25-608).
T2 construct: also called RSA
T2 sequence (P02770 25-608 limits assumed): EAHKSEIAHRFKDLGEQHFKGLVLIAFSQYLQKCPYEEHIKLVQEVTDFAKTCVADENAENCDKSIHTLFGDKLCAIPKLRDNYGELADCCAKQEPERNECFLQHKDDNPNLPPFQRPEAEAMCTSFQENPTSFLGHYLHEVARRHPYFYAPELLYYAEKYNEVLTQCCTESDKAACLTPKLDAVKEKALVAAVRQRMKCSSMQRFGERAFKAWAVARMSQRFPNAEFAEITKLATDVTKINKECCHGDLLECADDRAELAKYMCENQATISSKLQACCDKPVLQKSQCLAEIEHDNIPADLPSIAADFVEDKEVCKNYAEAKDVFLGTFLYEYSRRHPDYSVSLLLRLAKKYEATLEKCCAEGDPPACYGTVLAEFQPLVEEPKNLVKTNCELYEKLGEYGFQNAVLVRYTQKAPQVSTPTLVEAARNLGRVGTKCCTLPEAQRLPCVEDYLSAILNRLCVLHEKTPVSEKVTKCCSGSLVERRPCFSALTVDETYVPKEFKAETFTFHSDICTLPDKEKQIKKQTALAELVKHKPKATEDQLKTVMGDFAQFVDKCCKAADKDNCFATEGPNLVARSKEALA
Description: SPR (Biacore 2000): rat albumin immobilised to 831 RU, PEP06923 injected at 40 nM for 5 min, then HBS-EP. The protocol:
(§1) The albumin binding polypeptides were injected at a constant flow-rate of 50 μl/min for 5 minutes, followed by injection of HBS-EP for 60 minutes. The surfaces were regenerated with one injection of 25 μl HCl, 10 mM. All samples were run in duplicates.
(§2) After subtraction of reference surface and buffer injection, curves were fitted to a 1:1 (Langmuir) binding model using BIAevaluation software with correction for mass transfer and with RUmax set as a local parameter.

The target in assay [3] is T3, albumin from dog (dog, UniProt P49822 25-608).
T3 construct: also called DSA
T3 sequence (P49822 25-608 limits assumed): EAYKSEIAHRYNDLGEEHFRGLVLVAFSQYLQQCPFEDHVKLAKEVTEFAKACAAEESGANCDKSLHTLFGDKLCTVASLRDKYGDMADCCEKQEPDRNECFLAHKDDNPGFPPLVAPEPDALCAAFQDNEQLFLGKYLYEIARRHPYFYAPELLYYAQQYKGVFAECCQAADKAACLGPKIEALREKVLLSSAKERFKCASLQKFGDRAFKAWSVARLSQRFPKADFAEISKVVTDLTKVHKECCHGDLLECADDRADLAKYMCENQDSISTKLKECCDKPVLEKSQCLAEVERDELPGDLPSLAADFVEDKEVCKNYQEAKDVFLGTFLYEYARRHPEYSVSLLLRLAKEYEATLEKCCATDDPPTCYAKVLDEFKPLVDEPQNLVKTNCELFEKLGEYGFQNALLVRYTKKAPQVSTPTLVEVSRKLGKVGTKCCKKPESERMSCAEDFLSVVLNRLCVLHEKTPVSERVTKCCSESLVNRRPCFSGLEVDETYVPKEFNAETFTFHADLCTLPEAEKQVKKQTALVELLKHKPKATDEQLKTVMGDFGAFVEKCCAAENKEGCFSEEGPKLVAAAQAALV
Description: SPR (Biacore 2000): dog albumin immobilised to 1053 RU, PEP06923 injected at 40 nM for 5 min, then HBS-EP. The protocol:
as §1, §2

Assay [4] concerns the target T4, albumin from cynomolgus monkey (cynomolgus monkey, UniProt A2V9Z4 25-608).
T4 construct: also called CSA
Kind of assay: SPR (Biacore 2000): cynomolgus albumin immobilised to 1046 RU, PEP06923 injected at 40 nM for 5 min, then HBS-EP. The method, then: as §1, §2

In assay [5] the target is T5, albumin from mouse (mouse, UniProt P07724 25-608).
T5 construct: also called MSA
T5 sequence (P07724 25-608 limits assumed): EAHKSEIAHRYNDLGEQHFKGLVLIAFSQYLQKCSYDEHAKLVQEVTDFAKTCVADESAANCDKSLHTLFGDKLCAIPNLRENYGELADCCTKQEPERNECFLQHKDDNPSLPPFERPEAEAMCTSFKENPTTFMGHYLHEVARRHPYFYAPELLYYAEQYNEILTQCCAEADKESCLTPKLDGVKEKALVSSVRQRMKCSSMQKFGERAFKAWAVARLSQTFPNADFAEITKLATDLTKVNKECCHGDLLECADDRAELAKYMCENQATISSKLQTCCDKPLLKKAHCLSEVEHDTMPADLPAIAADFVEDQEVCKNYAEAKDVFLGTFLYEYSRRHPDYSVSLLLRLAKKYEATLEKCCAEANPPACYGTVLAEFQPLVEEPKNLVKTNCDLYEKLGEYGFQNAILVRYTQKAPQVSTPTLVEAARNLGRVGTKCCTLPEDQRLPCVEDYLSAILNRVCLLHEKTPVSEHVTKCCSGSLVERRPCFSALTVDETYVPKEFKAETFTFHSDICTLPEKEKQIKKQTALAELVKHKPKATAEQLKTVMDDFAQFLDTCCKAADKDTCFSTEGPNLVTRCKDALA
Kind of assay: SPR (Biacore 2000): mouse albumin immobilised to 858 RU, PEP06923 injected at 40 nM for 5 min, then HBS-EP. The method, then:
as §1, §2

Assay [6] concerns the target T3, albumin from dog. Kind of assay: SPR (Biacore 2000): dog albumin immobilised to 1053 RU, PEP08296 injected at 40 nM for 5 min, then HBS-EP. The method, then: as §1, §2
In assay [7] the target is T5, albumin from mouse. Description: SPR (Biacore 2000): mouse albumin immobilised to 858 RU, PEP08296 injected at 40 nM for 5 min, then HBS-EP. The method, then: as §1, §2
Assay [8] addresses T4, albumin from cynomolgus monkey. Kind of assay: SPR (Biacore 2000): cynomolgus albumin immobilised to 1046 RU, PEP08296 injected at 40 nM for 5 min, then HBS-EP. The protocol: as §1, §2
Assay [9] concerns the target T1, human serum albumin. Description: SPR (Biacore 2000): human albumin immobilised to 1130 RU, PEP08296 injected at 40 nM for 5 min, then HBS-EP. The protocol:
as §1, §2

Assay [10] concerns the target T2, albumin from rat. Kind of assay: SPR (Biacore 2000): rat albumin immobilised to 831 RU, PEP08296 injected at 40 nM for 5 min, then HBS-EP. The protocol: as §1, §2
The target in assay [11] is T4, albumin from cynomolgus monkey. Description: SPR (Biacore 2000): cynomolgus albumin immobilised to 1046 RU, PEP07986 injected at 40 nM for 5 min, then HBS-EP. The protocol: as §1, §2

T4 sequence (A2V9Z4 25-608 limits assumed): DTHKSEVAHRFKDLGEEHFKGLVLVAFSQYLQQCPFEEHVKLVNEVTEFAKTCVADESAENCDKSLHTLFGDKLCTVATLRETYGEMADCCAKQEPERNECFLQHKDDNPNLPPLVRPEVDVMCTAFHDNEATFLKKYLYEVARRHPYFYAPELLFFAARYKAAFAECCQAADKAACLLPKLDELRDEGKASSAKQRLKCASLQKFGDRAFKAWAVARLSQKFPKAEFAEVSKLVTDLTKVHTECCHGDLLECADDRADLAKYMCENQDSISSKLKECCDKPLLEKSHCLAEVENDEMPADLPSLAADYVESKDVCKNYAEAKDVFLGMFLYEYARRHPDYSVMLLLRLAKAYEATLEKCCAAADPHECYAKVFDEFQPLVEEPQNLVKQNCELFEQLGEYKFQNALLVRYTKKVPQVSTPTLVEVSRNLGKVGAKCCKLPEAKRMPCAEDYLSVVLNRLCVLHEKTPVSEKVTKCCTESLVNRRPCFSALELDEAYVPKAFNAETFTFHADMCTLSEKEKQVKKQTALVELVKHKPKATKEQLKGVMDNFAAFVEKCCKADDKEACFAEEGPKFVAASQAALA

B1: PEP07975 (designed binder)
chain: ALASAKEAANAELDC(maleimide‑DOTA)YGVSDFYKRLIDKAKTVEGVEALKDAILAALP-NH2
notes: Made by solid phase peptide synthesis; also called DOTA-conjugated PEP07834; maleimide-DOTA-conjugated PEP07834-amide
For B1, in the assay with human serum albumin [1], the binding result was “binds”.

B2: PEP06923 (designed binder)
chain: GSSLAEAKVLANRELDKYGVSDFYKRLINKAKTVEGVEALKLHILAALP
notes: Expressed as MGSS-[PP###]; also called non-inventive polypeptide
For the molecule B2, the binding result (in the assay with albumin from rat [2]; with albumin from dog [3]; in [4]; in the assay with albumin from mouse [5]) was “binds” in each case.

Regarding GSLAEAKEAANAELDC(Mal‑DOTA)YGVSDFYKRLIDKAKTVEGVEALKDAILAALPG (designed binder, also called DOTA-conjugated PEP08185) [PEP08296], the binding result (with albumin from dog [6]; with albumin from mouse [7]; in [8]; in the assay with human serum albumin [9]; with albumin from rat [10]) was “binds” throughout.

As to GSLAEAKEAANAELDSYGVSDFYKRLIDKAKTVEGVEALKDAILAALP (designed binder) [PEP07986], the binding result in [11] is listed as “binds”.
